Nine molecules from US20140219913A1 (AbbVie / Abbott, published 2014) can be followed below.

The target in assay [1] is T1, Recombinant human B7-1/CD80 Fc chimera (Cat. 140-B1-100, R&D Systems) (human, UniProt P33681 35-242).
T1 construct: extracellular domain; also called B7-1 antigen; Fc part of the bought chimera not given; not described
T1 sequence (looked up): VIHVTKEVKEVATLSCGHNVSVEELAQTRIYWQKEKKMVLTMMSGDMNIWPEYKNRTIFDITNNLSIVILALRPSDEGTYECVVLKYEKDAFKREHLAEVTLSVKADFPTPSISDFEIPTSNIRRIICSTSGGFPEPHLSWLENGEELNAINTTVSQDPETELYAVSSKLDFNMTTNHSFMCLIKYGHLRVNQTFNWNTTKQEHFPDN
As to the kind of experiment: competitive ELISA; coated CD28 Fc, biotinylated B7-1/CD80 Fc (2 nM), construct titrated. On the procedure: (§1) ELISA plates (Nunc, MaxiSorp, Rochester, N.Y.) were incubated overnight at 4° C. with Recombinant Human CD28 Fc Chimera (Cat. #342-CD-200). Plates were washed three times in washing buffer (PBS containing 0.05% Tween 20), and blocked for 1 hour at 25° C. in blocking buffer (PBS containing 1% BSA). Wells were washed three times, and serial dilutions of each antibody or DVD-Ig in PBS containing 0.1% BSA were added to the wells and incubated at 25° C. for 1 hour. The wells were washed three times, and biotinylated antigen (2 nM) was added to the plates and incubated for 1 hour at 25° C. The wells were washed three times and incubated for 1 hour at 25° C. with streptavidin-HRP (KPL #474-3000, Gaithersburg, Md.). The wells were washed three times, and 100 μl of ULTRA-TMB ELISA (Pierce, Rockford, Ill.) was added per well. Following color development the reaction was stopped with 1N HCL and absorbance at 450 nm was measured. Recombinant human B7-1/CD80 Fc chimera (Cat. 140-B1-100, R&D Systems, Minneapolis, Minn.) was used.
(In general: ELISA stands for enzyme-linked immunosorbent assay.)

In assay [2] the target is T2, Recombinant human B7-2/CD86 Fc chimera (Cat. 141-B2-100, R&D Systems) (human, UniProt P42081 26-245).
T2 construct: Fc part of the bought chimera not given; not described
T2 sequence (looked up): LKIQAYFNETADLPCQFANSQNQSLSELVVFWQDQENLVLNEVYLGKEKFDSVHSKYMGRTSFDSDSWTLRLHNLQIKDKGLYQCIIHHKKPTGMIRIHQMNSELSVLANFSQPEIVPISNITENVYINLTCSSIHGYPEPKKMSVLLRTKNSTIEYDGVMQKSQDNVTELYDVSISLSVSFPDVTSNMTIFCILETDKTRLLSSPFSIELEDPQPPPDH
Briefly: competitive ELISA; coated CD28 Fc, biotinylated B7-2/CD86 Fc, construct titrated. On the procedure: as §1
Recombinant human B7-2/CD86 Fc chimera (Cat. 141-B2-100, R&D Systems, Minneapolis, Minn.) was used.

Assay [3] addresses T1, Recombinant human B7-1/CD80 Fc chimera …. As to the kind of experiment: direct bind ELISA, coated recombinant human B7-1/CD80 Fc chimera. As to the method:
Enzyme Linked Immunosorbent Assays (ELISA) to screen for antibodies that bind a desired target antigen were performed as follows. High bind ELISA plates (Corning Costar #3369, Acton, Mass.) were coated with 100 μL/well of 10 μg/ml of desired target antigen (R&D Systems, Minneapolis, Minn.) or desired target antigen extra-cellular domain/FC fusion protein (R&D Systems, Minneapolis, Minn.) or monoclonal mouse anti-polyHistidine antibody (R&D Systems #MAB050, Minneapolis, Minn.) in phosphate buffered saline (10×PBS, Abbott Bioresearch Center, Media Prep#MPS-073, Worcester, Mass.) overnight at 4° C. Plates were washed four times with PBS containing 0.02% Tween 20. Plates were blocked by the addition of 300 μL/well blocking solution (non-fat dry milk powder, various retail suppliers, diluted to 2% in PBS) for ½ hour at room temperature. Plates were washed four times after blocking with PBS containing 0.02% Tween 20.
One hundred microliters of 10 ng/mL goat anti-human IgG-FC specific HRP conjugated antibody (Southern Biotech #2040-05, Birmingham, Ala.) was added to each well of the desired target antigen plate or anti-polyHistidine antibody/Histidine tagged desired target antigen plate. Alternatively, one hundred microliters of 10 ng/mL goat anti-human IgG-kappa light chain specific HRP conjugated antibody (Southern Biotech #2060-05 Birmingham, Ala.) was added to each well of the desired target antigen/FC fusion plate and incubated for 1 hour at room temperature. Plates were washed 4 times with PBS containing 0.02% Tween 20.
One hundred microliters of enhanced TMB solution (Neogen Corp. #308177, K Blue, Lexington, Ky.) was added to each well and incubated for 10 minutes at room temperature. The reaction was stopped by the addition of 50 μL 1N sulphuric acid. Plates were read spectrophotometrically at a wavelength of 450 nm

For the next assay, the target named is NGF. Briefly: cell-based or functional assay.

B1: RAB007 (other)
VH: AMHVAQPAVVLASSRGIASFVCEYASPGKYTEVRVTVLRQADSQVTEVCAATYMMGNELTFLDDSICTGTSSGNQVNLTIQGLRAMDTGLYICKVELMYPPPYYEGIGNGTQIYVIDPEPCPDSDASTKGPEVQLVQSGAEVKKPGASVKVSCKASGYTFTKYWLGWVRQAPGQGLEWMGDIYPGYDYTHYNEKFKDRVTLTTDTSTSTAYMELRSLRSDDTAVYYCARSDGSSTYWGQGTLVTVSS
VL: AMHVAQPAVVLASSRGIASFVCEYASPGKYTEVRVTVLRQADSQVTEVCAATYMMGNELTFLDDSICTGTSSGNQVNLTIQGLRAMDTGLYICKVELMYPPPYYEGIGNGTQIYVIDPEPCPDSDTVAAPDVLMTQTPLSLPVTPGEPASISCTSSQNIVHSNGNTYLEWYLQKPGQSPQLLIYKVSNRFSGVPDRFSGSGSGTDFTLKISRVEAEDVGVYYCFQVSHVPYTFGGGTKVEIKR
notes: rDVD-Ig with LEA29Y on both chains; also called RAB007H; RAB007L
As usually defined, the EC50 is the midpoint of the concentration-response curve. For B1, the EC50 was 6.6 nM in assay [1] and 2.1 nM in assay [2].

B2: RAB008 (other)
VH: AMHVAQPAVVLASSRGIASFVCEYASPGKYTEVRVTVLRQADSQVTEVCAATYMMGNELTFLDDSICTGTSSGNQVNLTIQGLRAMDTGLYICKVELMYPPPYYEGIGNGTQIYVIDPEPCPDSDASTKGPEVQLVQSGAEVKKPGASVKVSCKASGYTFTKYWLGWVRQAPGQGLEWMGDIYPGYDYTHYNEKFKDRVTLTTDTSTSTAYMELRSLRSDDTAVYYCARSDGSSTYWGQGTLVTVSS
VL: DVLMTQTPLSLPVTPGEPASISCTSSQNIVHSNGNTYLEWYLQKPGQSPQLLIYKVSNRFSGVPDRFSGSGSGTDFTLKISRVEAEDVGVYYCFQVSHVPYTFGGGTKVEIKR
notes: rDVD-Ig with LEA29Y on the heavy chain only; also called RAB008H; RAB008L
Turning to B2, the EC50 worked out at 1.5 nM in assay [1] and 1 nM in assay [2].

B3: RAB021 (other)
VH: EVQLVQSGAEVKKPGASVKVSCKASGYTFTKYWLGWVRQAPGQGLEWMGDIYPGYDYTHYNEKFKDRVTLTTDTSTSTAYMELRSLRSDDTAVYYCARSDGSSTYWGQGTLVTVSS
VL: AMHVAQPAVVLASSRGIASFVCEYASPGKYTEVRVTVLRQADSQVTEVCAATYMMGNELTFLDDSICTGTSSGNQVNLTIQGLRAMDTGLYICKVELMYPPPYYEGIGNGTQIYVIDPEPCPDSDQEPKSSDKTHTSPDVLMTQTPLSLPVTPGEPASISCTSSQNIVHSNGNTYLEWYLQKPGQSPQLLIYKVSNRFSGVPDRFSGSGSGTDFTLKISRVEAEDVGVYYCFQVSHVPYTFGGGTKVEIKR
notes: rDVD-Ig with LEA29Y on the light chain only and a QH linker; also called RAB021H; RAB021L
With B3, the figures for the EC50 in assay [1], in assay [2] and in assay [3] were 2.4 nM, 0.8 nM and 2.5 nM, respectively.

B4: RAB019 (other)
VH: AMHVAQPAVVLASSRGIASFVCEYASPGKYTEVRVTVLRQADSQVTEVCAATYMMGNELTFLDDSICTGTSSGNQVNLTIQGLRAMDTGLYICKVELMYPPPYYEGIGNGTQIYVIDPEPCPDSDQEPKSSDKTHTSPEVQLVQSGAEVKKPGASVKVSCKASGYTFTKYWLGWVRQAPGQGLEWMGDIYPGYDYTHYNEKFKDRVTLTTDTSTSTAYMELRSLRSDDTAVYYCARSDGSSTYWGQGTLVTVSS
VL: AMHVAQPAVVLASSRGIASFVCEYASPGKYTEVRVTVLRQADSQVTEVCAATYMMGNELTFLDDSICTGTSSGNQVNLTIQGLRAMDTGLYICKVELMYPPPYYEGIGNGTQIYVIDPEPCPDSDQEPKSSDKTHTSPDVLMTQTPLSLPVTPGEPASISCTSSQNIVHSNGNTYLEWYLQKPGQSPQLLIYKVSNRFSGVPDRFSGSGSGTDFTLKISRVEAEDVGVYYCFQVSHVPYTFGGGTKVEIKR
notes: rDVD-Ig with LEA29Y on both chains and QH linkers; also called RAB019H; RAB019L
As to B4, in assay [3], the binding result is “no binding”.

B5: RAB015 (other)
VH: EVQLVQSGAEVKKPGASVKVSCKASGYTFTKYWLGWVRQAPGQGLEWMGDIYPGYDYTHYNEKFKDRVTLTTDTSTSTAYMELRSLRSDDTAVYYCARSDGSSTYWGQGTLVTVSS
VL: AMHVAQPAVVLASSRGIASFVCEYASPGKYTEVRVTVLRQADSQVTEVCAATYMMGNELTFLDDSICTGTSSGNQVNLTIQGLRAMDTGLYICKVELMYPPPYYEGIGNGTQIYVIDPEPCPDSDTVAAPSVFIFPPDVLMTQTPLSLPVTPGEPASISCTSSQNIVHSNGNTYLEWYLQKPGQSPQLLIYKVSNRFSGVPDRFSGSGSGTDFTLKISRVEAEDVGVYYCFQVSHVPYTFGGGTKVEIKR
notes: rDVD-Ig with LEA29Y on the light chain only and a long linker; also called RAB015H; RAB015L
For the molecule B5, the concentration for a half-maximal effect (EC50) in assay [1] turned out to be 78.9 nM; in assay [3] it was 34.9 nM.

B6: RAB009 (other)
VH: EVQLVQSGAEVKKPGASVKVSCKASGYTFTKYWLGWVRQAPGQGLEWMGDIYPGYDYTHYNEKFKDRVTLTTDTSTSTAYMELRSLRSDDTAVYYCARSDGSSTYWGQGTLVTVSS
VL: AMHVAQPAVVLASSRGIASFVCEYASPGKYTEVRVTVLRQADSQVTEVCAATYMMGNELTFLDDSICTGTSSGNQVNLTIQGLRAMDTGLYICKVELMYPPPYYEGIGNGTQIYVIDPEPCPDSDTVAAPDVLMTQTPLSLPVTPGEPASISCTSSQNIVHSNGNTYLEWYLQKPGQSPQLLIYKVSNRFSGVPDRFSGSGSGTDFTLKISRVEAEDVGVYYCFQVSHVPYTFGGGTKVEIKR
notes: rDVD-Ig with LEA29Y on the light chain only; also called RAB009H; RAB009L
Regarding B6, the values for the concentration for a half-maximal effect (EC50) in assay [1] and in assay [2] were 2.7 nM and 0.3 nM, respectively.

B7: Anti-NGF (antibody, V domains shown)
VH: QVQLQESGPGLVKPSETLSLTCTVSGFSLIGYDLNWIRQPPGKGLEWIGIIWGDGTTDYNSAVKSRVTISKDTSKNQFSLKLSSVTAADTAVYYCARGGYWYATSYYFDYWGQGTLVTVSS
VL: DIQMTQSPSSLSASVGDRVTITCRASQSISNNLNWYQQKPGKAPKLLIYYTSRFHSGVPSRFSGSGSGTDFTFTISSLQPEDIATYYCQQEHTLPYTFGQGTKLEIKR
B7: in the assay with NGF, the “C-terminal Bioassay Mean (IC50, nM): Cell Impedance assay” value came to 7.8 nM and the “C-terminal Bioassay Mean (IC50, nM): pERK assay” value was found to be 0.6 nM.

B8: RAB011 (other)
VH: AMHVAQPAVVLASSRGIASFVCEYASPGKYTEVRVTVLRQADSQVTEVCAATYMMGNELTFLDDSICTGTSSGNQVNLTIQGLRAMDTGLYICKVELMYPPPYYEGIGNGTQIYVIDPEPCPDSDASTKGPQVQLQESGPGLVKPSETLSLTCTVSGFSLIGYDLNWIRQPPGKGLEWIGIIWGDGTTDYNSAVKSRVTISKDTSKNQFSLKLSSVTAADTAVYYCARGGYWYATSYYFDYWGQGTLVTVSS
VL: DIQMTQSPSSLSASVGDRVTITCRASQSISNNLNWYQQKPGKAPKLLIYYTSRFHSGVPSRFSGSGSGTDFTFTISSLQPEDIATYYCQQEHTLPYTFGQGTKLEIKR
notes: rDVD-Ig with LEA29Y on the heavy chain only and anti-NGF variable domains; also called RAB011H; RAB011L
For the molecule B8, the concentration for a half-maximal effect (EC50) in assay [1] is 1.6 nM; in assay [2], 1.3 nM.

B9: RAB012 (other)
VH: QVQLQESGPGLVKPSETLSLTCTVSGFSLIGYDLNWIRQPPGKGLEWIGIIWGDGTTDYNSAVKSRVTISKDTSKNQFSLKLSSVTAADTAVYYCARGGYWYATSYYFDYWGQGTLVTVSS
VL: AMHVAQPAVVLASSRGIASFVCEYASPGKYTEVRVTVLRQADSQVTEVCAATYMMGNELTFLDDSICTGTSSGNQVNLTIQGLRAMDTGLYICKVELMYPPPYYEGIGNGTQIYVIDPEPCPDSDTVAAPDIQMTQSPSSLSASVGDRVTITCRASQSISNNLNWYQQKPGKAPKLLIYYTSRFHSGVPSRFSGSGSGTDFTFTISSLQPEDIATYYCQQEHTLPYTFGQGTKLEIKR
notes: rDVD-Ig with LEA29Y on the light chain only and anti-NGF variable domains; also called RAB012H; RAB012L
With B9, the EC50 was determined as 2.5 nM in assay [1] and 4.2 nM in assay [2].
